We go through five molecules from patent US20200048333A1 (THOMAS JEFFERSON UNIVERSITY, published 2020).

No end group written: not given here.

One assay has as its target T1, GYDGDF (also: biotinylated (position not given here)).
T1 construct: also called biotinylated α2Ct peptide GYDGDF
T1 peptide: GYDGDF
Description: blot: antibody variant immobilized on nitrocellulose, biotinylated peptide bound, chemiluminescence.

For a further assay, the target named is T2, GDFYRA (also: biotinylated (position not given here)).
T2 construct: also called biotinylated α2Ct peptide GDFYRA
T2 peptide: GDFYRA
The description is as above.

In assay [1] the target is T3, human procollagen I isolated from human dermal fibroblasts (human, UniProt P02452 23-1464; P08123 23-1366).
T3 construct: Native triple-helical heterotrimer; also called native α2Ct present in procollagen I
T3 sequence (P02452 23-1464, chain 1 of 2): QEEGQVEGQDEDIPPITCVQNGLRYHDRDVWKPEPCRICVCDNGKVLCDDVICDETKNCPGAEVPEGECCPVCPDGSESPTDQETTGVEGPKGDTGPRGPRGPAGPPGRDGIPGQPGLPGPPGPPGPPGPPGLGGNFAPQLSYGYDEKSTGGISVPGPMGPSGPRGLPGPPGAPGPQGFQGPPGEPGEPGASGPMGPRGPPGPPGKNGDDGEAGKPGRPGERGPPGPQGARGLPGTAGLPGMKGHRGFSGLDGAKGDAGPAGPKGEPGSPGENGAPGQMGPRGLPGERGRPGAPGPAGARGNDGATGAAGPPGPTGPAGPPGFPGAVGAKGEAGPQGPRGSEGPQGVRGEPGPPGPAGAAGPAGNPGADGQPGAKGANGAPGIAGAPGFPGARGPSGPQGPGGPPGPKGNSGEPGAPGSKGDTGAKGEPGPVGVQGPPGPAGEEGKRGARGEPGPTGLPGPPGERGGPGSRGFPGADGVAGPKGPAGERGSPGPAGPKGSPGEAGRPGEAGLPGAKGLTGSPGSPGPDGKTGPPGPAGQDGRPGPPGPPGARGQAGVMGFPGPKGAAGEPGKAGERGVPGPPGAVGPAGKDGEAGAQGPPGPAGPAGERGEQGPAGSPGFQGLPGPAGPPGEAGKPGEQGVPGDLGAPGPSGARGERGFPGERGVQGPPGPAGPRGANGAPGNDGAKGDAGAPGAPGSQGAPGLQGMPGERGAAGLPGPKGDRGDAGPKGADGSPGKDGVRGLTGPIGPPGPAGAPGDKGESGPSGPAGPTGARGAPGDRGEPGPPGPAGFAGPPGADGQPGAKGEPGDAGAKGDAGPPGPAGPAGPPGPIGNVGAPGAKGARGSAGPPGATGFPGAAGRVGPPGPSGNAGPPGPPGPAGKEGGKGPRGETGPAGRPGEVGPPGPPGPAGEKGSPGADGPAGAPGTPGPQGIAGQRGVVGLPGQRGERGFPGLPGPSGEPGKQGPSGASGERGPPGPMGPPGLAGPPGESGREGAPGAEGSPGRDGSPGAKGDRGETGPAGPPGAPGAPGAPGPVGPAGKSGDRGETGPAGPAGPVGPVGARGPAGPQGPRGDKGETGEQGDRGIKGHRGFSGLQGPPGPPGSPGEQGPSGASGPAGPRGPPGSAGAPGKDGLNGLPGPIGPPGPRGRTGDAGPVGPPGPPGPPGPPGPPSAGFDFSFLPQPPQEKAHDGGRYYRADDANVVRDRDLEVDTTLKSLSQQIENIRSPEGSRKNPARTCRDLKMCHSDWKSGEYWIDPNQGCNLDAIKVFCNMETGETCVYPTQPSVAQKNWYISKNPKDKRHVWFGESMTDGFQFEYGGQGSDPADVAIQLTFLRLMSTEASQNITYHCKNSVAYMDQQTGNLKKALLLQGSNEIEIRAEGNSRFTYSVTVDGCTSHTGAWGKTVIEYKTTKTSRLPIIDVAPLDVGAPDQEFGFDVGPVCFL
T3 sequence (P08123 23-1366, chain 2 of 2): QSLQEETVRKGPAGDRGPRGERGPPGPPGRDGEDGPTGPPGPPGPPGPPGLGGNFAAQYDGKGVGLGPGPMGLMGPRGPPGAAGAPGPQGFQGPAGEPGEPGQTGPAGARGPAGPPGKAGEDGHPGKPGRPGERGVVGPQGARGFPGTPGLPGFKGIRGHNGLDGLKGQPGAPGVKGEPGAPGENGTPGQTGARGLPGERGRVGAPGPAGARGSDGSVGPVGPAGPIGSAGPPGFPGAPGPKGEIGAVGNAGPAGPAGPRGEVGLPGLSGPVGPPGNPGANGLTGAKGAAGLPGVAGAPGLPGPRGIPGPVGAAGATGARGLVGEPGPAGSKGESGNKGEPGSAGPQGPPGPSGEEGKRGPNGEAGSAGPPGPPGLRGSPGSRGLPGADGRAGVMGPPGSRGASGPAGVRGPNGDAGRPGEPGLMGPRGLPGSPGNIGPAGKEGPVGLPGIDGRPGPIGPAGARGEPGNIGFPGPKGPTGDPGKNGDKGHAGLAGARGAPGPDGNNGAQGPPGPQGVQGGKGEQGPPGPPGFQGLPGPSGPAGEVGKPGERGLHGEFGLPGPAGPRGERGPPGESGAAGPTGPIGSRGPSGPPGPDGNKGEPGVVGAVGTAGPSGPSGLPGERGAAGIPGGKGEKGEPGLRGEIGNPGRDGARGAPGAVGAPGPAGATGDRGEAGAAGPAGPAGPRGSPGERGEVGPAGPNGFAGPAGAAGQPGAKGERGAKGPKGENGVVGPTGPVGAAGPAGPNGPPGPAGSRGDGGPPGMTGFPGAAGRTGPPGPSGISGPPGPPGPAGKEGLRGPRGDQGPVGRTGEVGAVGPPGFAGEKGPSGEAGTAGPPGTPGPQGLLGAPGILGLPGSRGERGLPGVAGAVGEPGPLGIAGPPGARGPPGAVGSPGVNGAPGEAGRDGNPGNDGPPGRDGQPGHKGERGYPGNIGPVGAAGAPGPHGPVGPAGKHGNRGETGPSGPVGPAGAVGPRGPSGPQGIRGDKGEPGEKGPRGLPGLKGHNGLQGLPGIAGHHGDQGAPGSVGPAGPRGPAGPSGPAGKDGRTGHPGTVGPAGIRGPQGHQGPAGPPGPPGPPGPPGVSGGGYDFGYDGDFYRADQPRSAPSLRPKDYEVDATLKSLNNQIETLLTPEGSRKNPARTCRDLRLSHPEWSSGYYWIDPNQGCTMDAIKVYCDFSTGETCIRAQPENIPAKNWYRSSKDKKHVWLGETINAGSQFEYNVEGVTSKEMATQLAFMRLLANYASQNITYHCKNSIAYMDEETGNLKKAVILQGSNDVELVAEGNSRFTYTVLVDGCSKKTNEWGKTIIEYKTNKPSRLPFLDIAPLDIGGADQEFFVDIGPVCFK
The assay can be described thus: biosensor; scFv-procollagen I. Here is the method:
(§1) In brief, human procollagen I isolated from human dermal fibroblasts and synthetic α2Ct were immobilized on separate channels of a biosensor. Subsequently, the full-length AFA or its Fab fragments, generated by digestion with papain, were added at various concentrations to a sensor to record the association and the dissociation phases. Data from the AFA binding interactions and the Fab binding interactions were then used to calculate the KD values. In a separate set of experiments, the binding interactions of the scFv variant consisting of the VL and VH domains connected via a peptide linker were also tested using a biosensor. In these assays, the scFv-procollagen I binding interactions were studied.

Assay [2] addresses T4, synthetic full-length α2(I) C-telopeptide of human collagen I (α2Ct) (human).
T4 construct: also called synthetic α2Ct; full-length α2Ct
T4 peptide: GGGYDFGYDGDFYRA
The assay can be described thus: biosensor; synthetic α2Ct immobilized, Fab in solution. Here is the method: as §1

For assay [3], the target named is T3, human procollagen I isolated from human …. The assay can be described thus: biosensor; procollagen I immobilized, Fab in solution. Here is the method:
as §1

Assay [4] has the same target. Description: biosensor; procollagen I immobilized, antibody in solution. Here is the method:
as §1

Assay [5] concerns the target T4, synthetic full-length α2(I) …. Description: biosensor; synthetic α2Ct immobilized, antibody in solution. Here is the method:
as §1

In another assay the target is T5, α2Ct fragment GYDFG (human).
T5 construct: One of the overlapping peptides spanning the human α2Ct
T5 peptide: GYDFG
Description: biosensor; AFA immobilized, peptide in solution. Here is the method: (§2) Kinetics of the binding of the AFA to defined α2Ct epitopes. Employing a biosensor, we also analyzed the kinetics of the binding of the AFA with defined epitopes of the human α2Ct. For these assays we employed the AFA, control human IgG, and a set of overlapping peptides spanning the α2Ct (Table 3). In brief, the AFA and control human IgG were covalently immobilized on separate channels of a sensor chip. Subsequently, the binding of the α2Ct fragments to the immobilized antibodies was analyzed. Finally, the dissociation equilibrium constant (KD) values for each α2Ct fragment were calculated (Table 1).

The next assay concerns the target T6, α2Ct fragment DGDFY (human).
T6 construct: One of the overlapping peptides spanning the human α2Ct; also called A2_DGDFY
T6 peptide: DGDFY
Description: biosensor; AFA immobilized, peptide in solution. Here is the method: as §2

The target in another assay is T7, α2Ct fragment DFGYD (human).
T7 construct: One of the overlapping peptides spanning the human α2Ct
T7 peptide: DFGYD
The assay can be described thus: biosensor; AFA immobilized, peptide in solution. How it is done: as §2

The target of another assay is T8, α2Ct fragment GYDGD (human).
T8 construct: One of the overlapping peptides spanning the human α2Ct
T8 peptide: GYDGD
Description: biosensor; AFA immobilized, peptide in solution. How it is done:
as §2

A further assay deals with T9, α2Ct fragment DFYRA (human).
T9 construct: One of the overlapping peptides spanning the human α2Ct
T9 peptide: DFYRA
Description: biosensor; AFA immobilized, peptide in solution. Here is the method:
as §2

Assay [6] addresses T4, synthetic full-length α2(I) …. Description: biosensor; table of α2Ct fragments binding to AFA. How it is done: as §2

B1: chimeric human IgG-type AFA (antibody, V domains shown)
VH: AQIQLVQSGPELKKPGETVKISCKASGYTFTDYPLHWVKQAPGKGLQWMAWINTETGEPTYADDFTGRFAFSLETSASTAYLQINNLKNEDTATYFCVRGYYYYWGQGTTLSVSS
VL: DIVMSQSPSSLAVSAGEKVTMSCKSSQSLLNSRTRKNNLAWYQQKPGQSPKLLIYWASTRESGVPDRFTGSGSGTDFTLTISSVQAEDLAVYYCKQSYNLWTFGGGTKLEIKR
notes: also called chIgG; chlgG
Regarding B1, the binding result in the assay with GYDGDF and with GDFYRA was “binds” each time.

B2: scFv variant of the AFA consisting of the VL and VH domains connected via a peptide linker (scFv, V domains shown, not shown: small tags and cut ends)
VL: DIVMSQSPSSLAVSAGEKVTMSCKSSQSLLNSRTRKNNLAWYQQKPGQSPKLLIYWASTRESGVPDRFTGSGSGTDFTLTISSVQAEDLAVYYCKQSYNLWTFGGGTKLEIKR
V domain: AQIQLVQSGPELKKPGETVKISCKASGYTFTDYPLHWVKQAPGKGLQWMAWINTETGEPTYADDFTGRFAFSLETSASTAYLQINNLKNEDTATYFCVRGYYYYWGQGTTLSVSS
notes: The domain order VL-linker-VH follows the wording 'VL and VH domains connected via a peptide linker'; also called single chain antibody
One may read the Kd as the free concentration of one partner at which half of the binding sites on the other are occupied at equilibrium, for simple one-to-one binding. A low value points to a tighter complex. B2 showed a Kd in [1] of 0.075 µM.

B3: original mouse IgA-type AFA (antibody, V domains shown)
VH: AQIQLVQSGPELKKPGETVKISCKASGYTFTDYPLHWVKQAPGKGLQWMAWINTETGEPTYADDFTGRFAFSLETSASTAYLQINNLKNEDTATYFCVRGYYYYWGQGTTLSVSS
VL: DIVMSQSPSSLAVSAGEKVTMSCKSSQSLLNSRTRKNNLAWYQQKPGQSPKLLIYWASTRESGVPDRFTGSGSGTDFTLTISSVQAEDLAVYYCKQSYNLWTFGGGTKLEIKR
notes: Mouse IgA from a hybridoma, with heavy α chain and light κ chain; also called native mouse IgA-type AFA; original IgA-type anti-α2Ct antibody
B3: the binding result with GYDGDF and in the assay with GDFYRA was “binds” in each case.

B4: Fab fragment of the AFA (Fab, V domains shown)
VH: AQIQLVQSGPELKKPGETVKISCKASGYTFTDYPLHWVKQAPGKGLQWMAWINTETGEPTYADDFTGRFAFSLETSASTAYLQINNLKNEDTATYFCVRGYYYYWGQGTTLSVSS
VL: DIVMSQSPSSLAVSAGEKVTMSCKSSQSLLNSRTRKNNLAWYQQKPGQSPKLLIYWASTRESGVPDRFTGSGSGTDFTLTISSVQAEDLAVYYCKQSYNLWTFGGGTKLEIKR
notes: also called Fab AFA antibody; Fab fragments of the AFA
Turning to B4, the dissociation constant Kd in [2] was determined as 0.057 µM; in assay [3], 0.268 µM.

B5: full-length anti-fibrotic antibody (AFA), monoclonal anti-collagen I antibody against the α2(I) C-telopeptide (antibody, V domains shown)
VH: AQIQLVQSGPELKKPGETVKISCKASGYTFTDYPLHWVKQAPGKGLQWMAWINTETGEPTYADDFTGRFAFSLETSASTAYLQINNLKNEDTATYFCVRGYYYYWGQGTTLSVSS
VL: DIVMSQSPSSLAVSAGEKVTMSCKSSQSLLNSRTRKNNLAWYQQKPGQSPKLLIYWASTRESGVPDRFTGSGSGTDFTLTISSVQAEDLAVYYCKQSYNLWTFGGGTKLEIKR
notes: The control was human IgG; also called full-length AFA; Full-length AFA antibody
With B5, the Kd in [4] was 0.000663 µM; in [5] it was 0.021 nM; with α2Ct fragment GYDFG, 259 µM; with α2Ct fragment DGDFY, 22.2 µM; with α2Ct fragment DFGYD, 6400 µM; with α2Ct fragment GYDGD it was 604 µM. The Kd in the assay with α2Ct fragment DFYRA came out at 449 µM; in [6] it was 0.021 nM.
